The values that follow come from publication PMC6300978 (Chemico-biological interactions, 2015).

For series [1] the following is noted: probe reaction for UGT1A1; cited from earlier work.
Series [2] in a line: Chemical inhibition of GA glucuronidation. Particulars: GA 2 µM, M2 formation.
Another series deals with UGT1A8. As to conditions: mycophenolic acid as substrate of UGT1A8; cited from earlier work.
Substrate in series [3]: CC1(C)C=Cc2c(ccc3c2OC[C@@H](c2ccc(O)cc2O)C3)O1
In words: GA glucuronidation kinetics by recombinant UGT1A10. As to conditions: other: UGT1A10, M2 formation, substrate inhibition model; pH 7.4. Format: in vitro ADME, human.

Substrate in series [4]: CC1(C)C=Cc2c(ccc3c2OC[C@@H](c2ccc(O)cc2O)C3)O1
Description: GA glucuronidation kinetics by recombinant UGT1A3. It is filed as in vitro ADME, human. As to conditions: other: UGT1A3, M2 formation, Michaelis–Menten; pH 7.4.

Substrate in series [5]: CC1(C)C=Cc2c(ccc3c2OC[C@@H](c2ccc(O)cc2O)C3)O1
Description: GA glucuronidation kinetics by recombinant UGT1A1. Format: in vitro ADME, human. As to conditions: Michaelis–Menten, pH 7.4.

Substrate in series [6]: CC1(C)C=Cc2c(ccc3c2OC[C@@H](c2ccc(O)cc2O)C3)O1
Description: GA glucuronidation by recombinant UGT1A8. Particulars: other: UGT1A8, M2 formation, substrate inhibition model; pH 7.4. Format: in vitro ADME, human.

Regarding `C#C[C@]1(O)CC[C@H]2[C@@H]3CCc4cc(O)ccc4[C@H]3CC[C@@]21C` [ethylestradiol], the “rate of 3-O-glucuronidation by DLM relative to HLM” value in series [1] was 10 fold. Consider `OC(Cn1cncn1)(Cn1cncn1)c1ccc(F)cc1F` [fluconazole], for which, in series [2] (inhibitor 1 mM (Fig. 6)), the “remaining GA glucuronidation activity in HIM” value is given as “above 85 % of the control”. `C=CCc1ccc(O)c(-c2cc(CC=C)ccc2O)c1` [magnolol]: the “remaining GA glucuronidation activity in HIM” value in series [2] (inhibitor 1 µM) is recorded as “above 85 % of the control”. `COc1c(C)c2c(c(O)c1C/C=C(\C)CCC(=O)O)C(=O)OC2` [mycophenolic acid]: the Michaelis constant (Km) (commonly the substrate concentration at which the rate is half of its maximum) in the series on UGT1A8 was 1390 nM. The “remaining GA glucuronidation activity in HIM” value in series [2] (inhibitor 10 µM) is 28 % of the control. Turning to `Cc1cn(-c2cc(NC(=O)c3ccc(C)c(Nc4nccc(-c5cccnc5)n4)c3)cc(C(F)(F)F)c2)cn1` [nilotinib], in series [2] (inhibitor 1 µM), the “remaining GA glucuronidation activity in HIM” value was “above 85 % of the control”.

B1: recombinant human UGT1A10 (Homo sapiens) (protein)
chain: GKLLVVPMDGSHWFTMQSVVEKLILRGHEVVVVMPEVSWQLERSLNCTVKTYSTSYTLEDQNREFMVFAHAQWKAQAQSIFSLLMSSSSGFLDLFFSHCRSLFNDRKLVEYLKESSFDAVFLDPFDTCGLIVAKYFSLPSVVFTRGIFCHHLEEGAQCPAPLSYVPNDLLGFSDAMTFKERVWNHIVHLEDHLFCQYLFRNALEIASEILQTPVTAYDLYSHTSIWLLRTDFVLDYPKPVMPNMIFIGGINCHQGKPLPMEFEAYINASGEHGIVVFSLGSMVSEIPEKKAMAIADALGKIPQTVLWRYTGTRPSNLANNTILVKWLPQNDLLGHPMTRAFITHAGSHGVYESICNGVPMVMMPLFGDQMDNAKRMETKGAGVTLNVLEMTSEDLENALKAVINDKSYKENIMRLSSLHKDRPVEPLDLAVFWVEFVMRHKGAPHLRPAAHDLTWYQYHSLDVIGFLLAVVLTVAFITFKCCAYGYRKCLGKKGRVKKAHKSKTH
B1: in series [3], the Michaelis constant (Km) is given as 28 ± 8 µM and the Vmax (in general, the top rate of the reaction or transport when substrate is in excess) is on record as 0.5 ± 0.1 nmol/min/mg.

B2: recombinant human UGT1A3 (Homo sapiens) (protein)
chain: GKVLVVPIDGSHWLSMREVLRELHARGHQAVVLTPEVNMHIKEENFFTLTTYAISWTQDEFDRHVLGHTQLYFETEHFLKKFFRSMAMLNNMSLVYHRSCVELLHNEALIRHLNATSFDVVLTDPVNLCAAVLAKYLSIPTVFFLRNIPCDLDFKGTQCPNPSSYIPRLLTTNSDHMTFMQRVKNMLYPLALSYICHAFSAPYASLASELFQREVSVVDILSHASVWLFRGDFVMDYPRPIMPNMVFIGGINCANRKPLSQEFEAYINASGEHGIVVFSLGSMVSEIPEKKAMAIADALGKIPQTVLWRYTGTRPSNLANNTILVKWLPQNDLLGHPMTRAFITHAGSHGVYESICNGVPMVMMPLFGDQMDNAKRMETKGAGVTLNVLEMTSEDLENALKAVINDKSYKENIMRLSSLHKDRPVEPLDLAVFWVEFVMRHKGAPHLRPAAHDLTWYQYHSLDVIGFLLAVVLTVAFITFKCCAYGYRKCLGKKGRVKKAHKSKTH
Consider B2, for which, in series [4], the Km was 11 ± 4 µM and the maximal velocity (Vmax) amounted to 0.32 ± 0.06 nmol/min/mg.

B3: recombinant human UGT1A1 (Homo sapiens) (protein)
chain: HAGKILLIPVDGSHWLSMLGAIQQLQQRGHEIVVLAPDASLYIRDGAFYTLKTYPVPFQREDVKESFVSLGHNVFENDSFLQRVIKTYKKIKKDSAMLLSGCSHLLHNKELMASLAESSFDVMLTDPFLPCSPIVAQYLSLPTVFFLHALPCSLEFEATQCPNPFSYVPRPLSSHSDHMTFLQRVKNMLIAFSQNFLCDVVYSPYATLASEFLQREVTVQDLLSSASVWLFRSDFVKDYPRPIMPNMVFVGGINCLHQNPLSQEFEAYINASGEHGIVVFSLGSMVSEIPEKKAMAIADALGKIPQTVLWRYTGTRPSNLANNTILVKWLPQNDLLGHPMTRAFITHAGSHGVYESICNGVPMVMMPLFGDQMDNAKRMETKGAGVTLNVLEMTSEDLENALKAVINDKSYKENIMRLSSLHKDRPVEPLDLAVFWVEFVMRHKGAPHLRPAAHDLTWYQYHSLDVIGFLLAVVLTVAFITFKCCAYGYRKCLGKKGRVKKAHKSKTH
Turning to B3, in series [5] (other: UGT1A1, M1 formation), the Michaelis-Menten constant (Km) came out at 7.6 ± 1.8 µM and the maximal velocity (Vmax) was 0.17 ± 0.01 nmol/min/mg. In addition, in series [5] (other: UGT1A1, M2 formation), the Michaelis-Menten constant (Km) came out at 24 ± 14 µM and the Vmax is 0.11 ± 0.03 nmol/min/mg.

B4: recombinant human UGT1A8 (Homo sapiens) (protein)
chain: GKLLVVPMDGSHWFTMQSVVEKLILRGHEVVVVMPEVSWQLGKSLNCTVKTYSTSYTLEDLDREFMDFADAQWKAQVRSLFSLFLSSSNGFFNLFFSHCRSLFNDRKLVEYLKESSFDAVFLDPFDACGLIVAKYFSLPSVVFARGIACHYLEEGAQCPAPLSYVPRILLGFSDAMTFKERVRNHIMHLEEHLFCQYFSKNALEIASEILQTPVTAYDLYSHTSIWLLRTDFVLDYPKPVMPNMIFIGGINCHQGKPLPMEFEAYINASGEHGIVVFSLGSMVSEIPEKKAMAIADALGKIPQTVLWRYTGTRPSNLANNTILVKWLPQNDLLGHPMTRAFITHAGSHGVYESICNGVPMVMMPLFGDQMDNAKRMETKGAGVTLNVLEMTSEDLENALKAVINDKSYKENIMRLSSLHKDRPVEPLDLAVFWVEFVMRHKGAPHLRPAAHDLTWYQYHSLDVIGFLLAVVLTVAFITFKCCAYGYRKCLGKKGRVKKAHKSKTH
B4: in series [6], the Km worked out at 64 ± 9 µM and the maximal velocity (Vmax) is 11 ± 3 nmol/min/mg.
